Results: US20110118131A1 (published 2011)

Biological target: T1, IL-1beta (UniProt P01584 117-269)
T1 construct: also called IL-1β
Assay: Biacore

Binder | fold difference in affinity vs parental | binding result
XPA23 Fab, heavy chain V50N (Fab, V domains shown) VH: EVQLLESGGGLVQPGGSLRLSCAASGFTFSKYFMFWVRQAPGKGLEWVSNISPSGGMTRYADSVKGRFTISRDNSKNTLYLQMNSLRAEDTAVYYCARVGYGGNSDYWGQGTLVTVSS VL: DIQMTQSPSSVSASVGDRLTIICRASQDINRWLAWYQQTPGNAPKLLIHSATSLQSGVPSRFSGSGSGTDFTLTINSLQPEDFATYYCQQADSFPLTFGGGTKVEIK | 0.03 fold | 
XPA23 Fab, heavy chain D106S (Fab, V domains shown) VH: EVQLLESGGGLVQPGGSLRLSCAASGFTFSKYFMFWVRQAPGKGLEWVSVISPSGGMTRYADSVKGRFTISRDNSKNTLYLQMNSLRAEDTAVYYCARVGYGGNSSYWGQGTLVTVSS VL: DIQMTQSPSSVSASVGDRLTIICRASQDINRWLAWYQQTPGNAPKLLIHSATSLQSGVPSRFSGSGSGTDFTLTINSLQPEDFATYYCQQADSFPLTFGGGTKVEIK | 0.03 fold | 
XPA23 Fab, heavy chain F33D (Fab, V domains shown) VH: EVQLLESGGGLVQPGGSLRLSCAASGFTFSKYDMFWVRQAPGKGLEWVSVISPSGGMTRYADSVKGRFTISRDNSKNTLYLQMNSLRAEDTAVYYCARVGYGGNSDYWGQGTLVTVSS VL: DIQMTQSPSSVSASVGDRLTIICRASQDINRWLAWYQQTPGNAPKLLIHSATSLQSGVPSRFSGSGSGTDFTLTINSLQPEDFATYYCQQADSFPLTFGGGTKVEIK | 0.92 fold | 
XPA23 Fab, heavy chain F33E (Fab, V domains shown) VH: EVQLLESGGGLVQPGGSLRLSCAASGFTFSKYEMFWVRQAPGKGLEWVSVISPSGGMTRYADSVKGRFTISRDNSKNTLYLQMNSLRAEDTAVYYCARVGYGGNSDYWGQGTLVTVSS VL: DIQMTQSPSSVSASVGDRLTIICRASQDINRWLAWYQQTPGNAPKLLIHSATSLQSGVPSRFSGSGSGTDFTLTINSLQPEDFATYYCQQADSFPLTFGGGTKVEIK | 0.86 fold | 
XPA23 Fab, heavy chain F33N (Fab, V domains shown) VH: EVQLLESGGGLVQPGGSLRLSCAASGFTFSKYNMFWVRQAPGKGLEWVSVISPSGGMTRYADSVKGRFTISRDNSKNTLYLQMNSLRAEDTAVYYCARVGYGGNSDYWGQGTLVTVSS VL: DIQMTQSPSSVSASVGDRLTIICRASQDINRWLAWYQQTPGNAPKLLIHSATSLQSGVPSRFSGSGSGTDFTLTINSLQPEDFATYYCQQADSFPLTFGGGTKVEIK | 0.97 fold | 
XPA23 Fab, heavy chain D106N (Fab, V domains shown) VH: EVQLLESGGGLVQPGGSLRLSCAASGFTFSKYFMFWVRQAPGKGLEWVSVISPSGGMTRYADSVKGRFTISRDNSKNTLYLQMNSLRAEDTAVYYCARVGYGGNSNYWGQGTLVTVSS VL: DIQMTQSPSSVSASVGDRLTIICRASQDINRWLAWYQQTPGNAPKLLIHSATSLQSGVPSRFSGSGSGTDFTLTINSLQPEDFATYYCQQADSFPLTFGGGTKVEIK | 0.07 fold | 
XPA23 Fab, heavy chain D106R (Fab, V domains shown) VH: EVQLLESGGGLVQPGGSLRLSCAASGFTFSKYFMFWVRQAPGKGLEWVSVISPSGGMTRYADSVKGRFTISRDNSKNTLYLQMNSLRAEDTAVYYCARVGYGGNSRYWGQGTLVTVSS VL: DIQMTQSPSSVSASVGDRLTIICRASQDINRWLAWYQQTPGNAPKLLIHSATSLQSGVPSRFSGSGSGTDFTLTINSLQPEDFATYYCQQADSFPLTFGGGTKVEIK | 0.06 fold | 
XPA23 Fab, heavy chain D106K (Fab, V domains shown) VH: EVQLLESGGGLVQPGGSLRLSCAASGFTFSKYFMFWVRQAPGKGLEWVSVISPSGGMTRYADSVKGRFTISRDNSKNTLYLQMNSLRAEDTAVYYCARVGYGGNSKYWGQGTLVTVSS VL: DIQMTQSPSSVSASVGDRLTIICRASQDINRWLAWYQQTPGNAPKLLIHSATSLQSGVPSRFSGSGSGTDFTLTINSLQPEDFATYYCQQADSFPLTFGGGTKVEIK | 0.04 fold | 
XPA23 Fab, heavy chain F33R (Fab, V domains shown) VH: EVQLLESGGGLVQPGGSLRLSCAASGFTFSKYRMFWVRQAPGKGLEWVSVISPSGGMTRYADSVKGRFTISRDNSKNTLYLQMNSLRAEDTAVYYCARVGYGGNSDYWGQGTLVTVSS VL: DIQMTQSPSSVSASVGDRLTIICRASQDINRWLAWYQQTPGNAPKLLIHSATSLQSGVPSRFSGSGSGTDFTLTINSLQPEDFATYYCQQADSFPLTFGGGTKVEIK |  | no binding
XPA23 Fab, heavy chain D106Y (Fab, V domains shown) VH: EVQLLESGGGLVQPGGSLRLSCAASGFTFSKYFMFWVRQAPGKGLEWVSVISPSGGMTRYADSVKGRFTISRDNSKNTLYLQMNSLRAEDTAVYYCARVGYGGNSYYWGQGTLVTVSS VL: DIQMTQSPSSVSASVGDRLTIICRASQDINRWLAWYQQTPGNAPKLLIHSATSLQSGVPSRFSGSGSGTDFTLTINSLQPEDFATYYCQQADSFPLTFGGGTKVEIK |  | no binding
XPA23 Fab, heavy chain D106E (Fab, V domains shown) VH: EVQLLESGGGLVQPGGSLRLSCAASGFTFSKYFMFWVRQAPGKGLEWVSVISPSGGMTRYADSVKGRFTISRDNSKNTLYLQMNSLRAEDTAVYYCARVGYGGNSEYWGQGTLVTVSS VL: DIQMTQSPSSVSASVGDRLTIICRASQDINRWLAWYQQTPGNAPKLLIHSATSLQSGVPSRFSGSGSGTDFTLTINSLQPEDFATYYCQQADSFPLTFGGGTKVEIK | 0.04 fold | 
XPA23 Fab, heavy chain F33S (Fab, V domains shown) VH: EVQLLESGGGLVQPGGSLRLSCAASGFTFSKYSMFWVRQAPGKGLEWVSVISPSGGMTRYADSVKGRFTISRDNSKNTLYLQMNSLRAEDTAVYYCARVGYGGNSDYWGQGTLVTVSS VL: DIQMTQSPSSVSASVGDRLTIICRASQDINRWLAWYQQTPGNAPKLLIHSATSLQSGVPSRFSGSGSGTDFTLTINSLQPEDFATYYCQQADSFPLTFGGGTKVEIK | 0.73 fold | 
XPA23 Fab, heavy chain D106H (Fab, V domains shown) VH: EVQLLESGGGLVQPGGSLRLSCAASGFTFSKYFMFWVRQAPGKGLEWVSVISPSGGMTRYADSVKGRFTISRDNSKNTLYLQMNSLRAEDTAVYYCARVGYGGNSHYWGQGTLVTVSS VL: DIQMTQSPSSVSASVGDRLTIICRASQDINRWLAWYQQTPGNAPKLLIHSATSLQSGVPSRFSGSGSGTDFTLTINSLQPEDFATYYCQQADSFPLTFGGGTKVEIK | 0.02 fold | 
XPA23 Fab, heavy chain F33K (Fab, V domains shown) VH: EVQLLESGGGLVQPGGSLRLSCAASGFTFSKYKMFWVRQAPGKGLEWVSVISPSGGMTRYADSVKGRFTISRDNSKNTLYLQMNSLRAEDTAVYYCARVGYGGNSDYWGQGTLVTVSS VL: DIQMTQSPSSVSASVGDRLTIICRASQDINRWLAWYQQTPGNAPKLLIHSATSLQSGVPSRFSGSGSGTDFTLTINSLQPEDFATYYCQQADSFPLTFGGGTKVEIK | 0.85 fold | 
XPA23 Fab, heavy chain D106W (Fab, V domains shown) VH: EVQLLESGGGLVQPGGSLRLSCAASGFTFSKYFMFWVRQAPGKGLEWVSVISPSGGMTRYADSVKGRFTISRDNSKNTLYLQMNSLRAEDTAVYYCARVGYGGNSWYWGQGTLVTVSS VL: DIQMTQSPSSVSASVGDRLTIICRASQDINRWLAWYQQTPGNAPKLLIHSATSLQSGVPSRFSGSGSGTDFTLTINSLQPEDFATYYCQQADSFPLTFGGGTKVEIK |  | no binding
XPA23 Fab, heavy chain F33W (Fab, V domains shown) VH: EVQLLESGGGLVQPGGSLRLSCAASGFTFSKYWMFWVRQAPGKGLEWVSVISPSGGMTRYADSVKGRFTISRDNSKNTLYLQMNSLRAEDTAVYYCARVGYGGNSDYWGQGTLVTVSS VL: DIQMTQSPSSVSASVGDRLTIICRASQDINRWLAWYQQTPGNAPKLLIHSATSLQSGVPSRFSGSGSGTDFTLTINSLQPEDFATYYCQQADSFPLTFGGGTKVEIK | 0.79 fold | 
XPA23 Fab, heavy chain F33Q (Fab, V domains shown) VH: EVQLLESGGGLVQPGGSLRLSCAASGFTFSKYQMFWVRQAPGKGLEWVSVISPSGGMTRYADSVKGRFTISRDNSKNTLYLQMNSLRAEDTAVYYCARVGYGGNSDYWGQGTLVTVSS VL: DIQMTQSPSSVSASVGDRLTIICRASQDINRWLAWYQQTPGNAPKLLIHSATSLQSGVPSRFSGSGSGTDFTLTINSLQPEDFATYYCQQADSFPLTFGGGTKVEIK | 0.78 fold | 
XPA23 Fab, heavy chain F33Y (Fab, V domains shown) VH: EVQLLESGGGLVQPGGSLRLSCAASGFTFSKYYMFWVRQAPGKGLEWVSVISPSGGMTRYADSVKGRFTISRDNSKNTLYLQMNSLRAEDTAVYYCARVGYGGNSDYWGQGTLVTVSS VL: DIQMTQSPSSVSASVGDRLTIICRASQDINRWLAWYQQTPGNAPKLLIHSATSLQSGVPSRFSGSGSGTDFTLTINSLQPEDFATYYCQQADSFPLTFGGGTKVEIK | 0.77 fold | 
XPA23 Fab, heavy chain D106Q (Fab, V domains shown) VH: EVQLLESGGGLVQPGGSLRLSCAASGFTFSKYFMFWVRQAPGKGLEWVSVISPSGGMTRYADSVKGRFTISRDNSKNTLYLQMNSLRAEDTAVYYCARVGYGGNSQYWGQGTLVTVSS VL: DIQMTQSPSSVSASVGDRLTIICRASQDINRWLAWYQQTPGNAPKLLIHSATSLQSGVPSRFSGSGSGTDFTLTINSLQPEDFATYYCQQADSFPLTFGGGTKVEIK | 0.02 fold | 
XPA23 Fab, heavy chain F33H (Fab, V domains shown) VH: EVQLLESGGGLVQPGGSLRLSCAASGFTFSKYHMFWVRQAPGKGLEWVSVISPSGGMTRYADSVKGRFTISRDNSKNTLYLQMNSLRAEDTAVYYCARVGYGGNSDYWGQGTLVTVSS VL: DIQMTQSPSSVSASVGDRLTIICRASQDINRWLAWYQQTPGNAPKLLIHSATSLQSGVPSRFSGSGSGTDFTLTINSLQPEDFATYYCQQADSFPLTFGGGTKVEIK |  | no binding
XPA23 Fab, heavy chain D106F (Fab, V domains shown) VH: EVQLLESGGGLVQPGGSLRLSCAASGFTFSKYFMFWVRQAPGKGLEWVSVISPSGGMTRYADSVKGRFTISRDNSKNTLYLQMNSLRAEDTAVYYCARVGYGGNSFYWGQGTLVTVSS VL: DIQMTQSPSSVSASVGDRLTIICRASQDINRWLAWYQQTPGNAPKLLIHSATSLQSGVPSRFSGSGSGTDFTLTINSLQPEDFATYYCQQADSFPLTFGGGTKVEIK |  | no binding
